# PMC7414181
# Assays:
# CD4-Ig [1] = molecular target: CD4-Ig (UniProt P01730)
# CD4-Ig [2] = molecular target: CD4-Ig (UniProt P01730); test: SPR; CD4-Ig captured on a protein A biosensor chip; monomeric gp120 proteins flowed over as a fourfold dilution series with a maximum concentration of 250 nM
# [3] = molecular target: YU2wt gp120 (HIV-1 strain YU2) (UniProt P35961)
# [4] = molecular target: YU2_(G458D) gp120 (HIV-1 (strain YU2))
# [5] = molecular target: YU2_(G471R) gp120 (HIV-1 (strain YU2))
# [6] = molecular target: YU2_(E466K) gp120 (HIV-1 (strain YU2))
# [7] = molecular target: YU2_(G366E) (HIV-1 (strain YU2))
substance,measurement,setting,value
YU2E466K gp120 (natural protein),Kd,CD4-Ig [1],1.7 nM
same,koff,CD4-Ig [1],0.00027 s⁻¹
same,kon,CD4-Ig [1],160000 M⁻¹ s⁻¹
YU2G458D gp120 (natural protein),Kd,CD4-Ig [1],6 nM
same,koff,CD4-Ig [1],0.00121 s⁻¹
same,kon,CD4-Ig [1],200000 M⁻¹ s⁻¹
YU2G471R gp120 (natural protein),Kd,CD4-Ig [1],1.6 nM
same,koff,CD4-Ig [1],0.00021 s⁻¹
same,kon,CD4-Ig [1],140000 M⁻¹ s⁻¹
YU2_(G458D) gp120 (natural protein),fold faster dissociation than YU2wt gp120,CD4-Ig [2],11 fold
sCD4 D1D2 (domain or fragment),Table S5: IC50 of sCD4 in the in vitro neutralisation of YU2wt pseudovirus on TZM-bl cells (blocks Env from CD4 on target cells),[3],0.29 µg/mL
same,"neutralization of YU2 mutant pseudovirus by sCD4, TZM-bl assay, loss of sensitivity against YU2wt",[4],30 fold
same,"neutralization of YU2 mutant pseudovirus by sCD4, TZM-bl assay, loss of sensitivity against YU2wt",[5],30 fold
same,"neutralization of YU2 mutant pseudovirus by sCD4, TZM-bl assay, loss of sensitivity against YU2wt",[6],30 fold
same,"neutralization of YU2 mutant pseudovirus by sCD4, TZM-bl assay, loss of sensitivity against YU2wt",[7],30 fold
